Laboratory results taken from patent US20260001928A1 (CORTERIA PHARMACEUTICALS, priority 2022, published 2026).
*1 amine or outer side, *2 acyl side, *3 side chain or, on linkers, in order; H or OH if unused. Where no end group is shown, it is not given here. Side-chain parts run from the residue outwards. [ ]: non-standard residue; d: D form. The star is where a group is joined. C18 diacid = O=C(O)CCCCCCCCCCCCCCCCC(=O)*; γGlu = O=C(O)[C@H](CCC(=O)[*:2])N[*:1]; NMeI = CC[C@H](C)[C@H](NC)C(=O)O; Api = NC1(C(=O)O)CCNCC1; Pentanoyl = CCCCC(=O)*; Aib = CC(C)(N)C(=O)O

T1: CRF1R receptor (UniProt P34998 24-415, limits assumed)
T1 sequence (looked up): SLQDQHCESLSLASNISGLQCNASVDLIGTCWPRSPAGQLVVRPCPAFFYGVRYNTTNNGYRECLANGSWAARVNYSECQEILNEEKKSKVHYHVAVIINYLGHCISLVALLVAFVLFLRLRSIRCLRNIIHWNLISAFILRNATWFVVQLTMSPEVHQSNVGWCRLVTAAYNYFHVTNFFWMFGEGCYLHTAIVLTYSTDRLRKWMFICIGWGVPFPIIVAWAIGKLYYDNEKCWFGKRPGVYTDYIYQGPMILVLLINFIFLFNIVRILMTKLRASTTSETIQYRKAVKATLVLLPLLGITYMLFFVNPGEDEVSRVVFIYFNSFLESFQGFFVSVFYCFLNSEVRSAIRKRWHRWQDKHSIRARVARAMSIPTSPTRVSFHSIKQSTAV

B1: SEQ ID NO 191 (peptide)
peptide: Ac-IVLSLD[dV]PIGLK([γGlu-C18 diacid])KILLEQEKQKKQREQAETN[Aib]QILAQV-NH2
SMILES: CC[C@H](C)[C@H](NC(C)=O)C(=O)N[C@H](C(=O)N[C@@H](CC(C)C)C(=O)N[C@@H](CO)C(=O)N[C@@H](CC(C)C)C(=O)N[C@@H](CC(=O)O)C(=O)N[C@@H](C(=O)N1CCC[C@H]1C(=O)N[C@H](C(=O)NCC(=O)N[C@@H](CC(C)C)C(=O)N[C@@H](CCCCNC(=O)CC[C@H](NC(=O)CCCCCCCCCCCCCCCCC(=O)O)C(=O)O)C(=O)N[C@@H](CCCCN)C(=O)N[C@H](C(=O)N[C@@H](CC(C)C)C(=O)N[C@@H](CC(C)C)C(=O)N[C@@H](CCC(=O)O)C(=O)N[C@@H](CCC(N)=O)C(=O)N[C@@H](CCC(=O)O)C(=O)N[C@@H](CCCCN)C(=O)N[C@@H](CCC(N)=O)C(=O)N[C@@H](CCCCN)C(=O)N[C@@H](CCCCN)C(=O)N[C@@H](CCC(N)=O)C(=O)N[C@@H](CCCNC(=N)N)C(=O)N[C@@H](CCC(=O)O)C(=O)N[C@@H](CCC(N)=O)C(=O)N[C@@H](C)C(=O)N[C@@H](CCC(=O)O)C(=O)N[C@H](C(=O)N[C@@H](CC(N)=O)C(=O)NC(C)(C)C(=O)N[C@@H](CCC(N)=O)C(=O)N[C@H](C(=O)N[C@@H](CC(C)C)C(=O)N[C@@H](C)C(=O)N[C@@H](CCC(N)=O)C(=O)N[C@H](C(N)=O)C(C)C)[C@@H](C)CC)[C@@H](C)O)[C@@H](C)CC)[C@@H](C)CC)C(C)C)C(C)C
B2: SEQ ID NO 188 (peptide)
peptide: Ac-IVLSLD[dV]PIKLK([γGlu-C18 diacid])KILLEQEKQK[Aib]QREQAETN[Api]QILAQV-NH2
SMILES: CC[C@H](C)[C@H](NC(C)=O)C(=O)N[C@H](C(=O)N[C@@H](CC(C)C)C(=O)N[C@@H](CO)C(=O)N[C@@H](CC(C)C)C(=O)N[C@@H](CC(=O)O)C(=O)N[C@@H](C(=O)N1CCC[C@H]1C(=O)N[C@H](C(=O)N[C@@H](CCCCN)C(=O)N[C@@H](CC(C)C)C(=O)N[C@@H](CCCCNC(=O)CC[C@H](NC(=O)CCCCCCCCCCCCCCCCC(=O)O)C(=O)O)C(=O)N[C@@H](CCCCN)C(=O)N[C@H](C(=O)N[C@@H](CC(C)C)C(=O)N[C@@H](CC(C)C)C(=O)N[C@@H](CCC(=O)O)C(=O)N[C@@H](CCC(N)=O)C(=O)N[C@@H](CCC(=O)O)C(=O)N[C@@H](CCCCN)C(=O)N[C@@H](CCC(N)=O)C(=O)N[C@@H](CCCCN)C(=O)NC(C)(C)C(=O)N[C@@H](CCC(N)=O)C(=O)N[C@@H](CCCNC(=N)N)C(=O)N[C@@H](CCC(=O)O)C(=O)N[C@@H](CCC(N)=O)C(=O)N[C@@H](C)C(=O)N[C@@H](CCC(=O)O)C(=O)N[C@H](C(=O)N[C@@H](CC(N)=O)C(=O)NC1(C(=O)N[C@@H](CCC(N)=O)C(=O)N[C@H](C(=O)N[C@@H](CC(C)C)C(=O)N[C@@H](C)C(=O)N[C@@H](CCC(N)=O)C(=O)N[C@H](C(N)=O)C(C)C)[C@@H](C)CC)CCNCC1)[C@@H](C)O)[C@@H](C)CC)[C@@H](C)CC)C(C)C)C(C)C
B3: SEQ ID NO 189 (peptide)
peptide: Ac-IVLSLD[dV]PIKLK([γGlu-C18 diacid])KILLEQEKQKAQREQAETN[Aib]QILAQV-NH2
SMILES: CC[C@H](C)[C@H](NC(C)=O)C(=O)N[C@H](C(=O)N[C@@H](CC(C)C)C(=O)N[C@@H](CO)C(=O)N[C@@H](CC(C)C)C(=O)N[C@@H](CC(=O)O)C(=O)N[C@@H](C(=O)N1CCC[C@H]1C(=O)N[C@H](C(=O)N[C@@H](CCCCN)C(=O)N[C@@H](CC(C)C)C(=O)N[C@@H](CCCCNC(=O)CC[C@H](NC(=O)CCCCCCCCCCCCCCCCC(=O)O)C(=O)O)C(=O)N[C@@H](CCCCN)C(=O)N[C@H](C(=O)N[C@@H](CC(C)C)C(=O)N[C@@H](CC(C)C)C(=O)N[C@@H](CCC(=O)O)C(=O)N[C@@H](CCC(N)=O)C(=O)N[C@@H](CCC(=O)O)C(=O)N[C@@H](CCCCN)C(=O)N[C@@H](CCC(N)=O)C(=O)N[C@@H](CCCCN)C(=O)N[C@@H](C)C(=O)N[C@@H](CCC(N)=O)C(=O)N[C@@H](CCCNC(=N)N)C(=O)N[C@@H](CCC(=O)O)C(=O)N[C@@H](CCC(N)=O)C(=O)N[C@@H](C)C(=O)N[C@@H](CCC(=O)O)C(=O)N[C@H](C(=O)N[C@@H](CC(N)=O)C(=O)NC(C)(C)C(=O)N[C@@H](CCC(N)=O)C(=O)N[C@H](C(=O)N[C@@H](CC(C)C)C(=O)N[C@@H](C)C(=O)N[C@@H](CCC(N)=O)C(=O)N[C@H](C(N)=O)C(C)C)[C@@H](C)CC)[C@@H](C)O)[C@@H](C)CC)[C@@H](C)CC)C(C)C)C(C)C
B4: SEQ ID NO 192 (peptide)
peptide: [NMeI]VLSLD[dV]PIGLK([γGlu-C18 diacid])KILLEQEKQKKQREQAETN[Aib]QILAQV-NH2
modifications: N-terminus assumed
SMILES: CC[C@H](C)[C@H](NC)C(=O)N[C@H](C(=O)N[C@@H](CC(C)C)C(=O)N[C@@H](CO)C(=O)N[C@@H](CC(C)C)C(=O)N[C@@H](CC(=O)O)C(=O)N[C@@H](C(=O)N1CCC[C@H]1C(=O)N[C@H](C(=O)NCC(=O)N[C@@H](CC(C)C)C(=O)N[C@@H](CCCCNC(=O)CC[C@H](NC(=O)CCCCCCCCCCCCCCCCC(=O)O)C(=O)O)C(=O)N[C@@H](CCCCN)C(=O)N[C@H](C(=O)N[C@@H](CC(C)C)C(=O)N[C@@H](CC(C)C)C(=O)N[C@@H](CCC(=O)O)C(=O)N[C@@H](CCC(N)=O)C(=O)N[C@@H](CCC(=O)O)C(=O)N[C@@H](CCCCN)C(=O)N[C@@H](CCC(N)=O)C(=O)N[C@@H](CCCCN)C(=O)N[C@@H](CCCCN)C(=O)N[C@@H](CCC(N)=O)C(=O)N[C@@H](CCCNC(=N)N)C(=O)N[C@@H](CCC(=O)O)C(=O)N[C@@H](CCC(N)=O)C(=O)N[C@@H](C)C(=O)N[C@@H](CCC(=O)O)C(=O)N[C@H](C(=O)N[C@@H](CC(N)=O)C(=O)NC(C)(C)C(=O)N[C@@H](CCC(N)=O)C(=O)N[C@H](C(=O)N[C@@H](CC(C)C)C(=O)N[C@@H](C)C(=O)N[C@@H](CCC(N)=O)C(=O)N[C@H](C(N)=O)C(C)C)[C@@H](C)CC)[C@@H](C)O)[C@@H](C)CC)[C@@H](C)CC)C(C)C)C(C)C
B5: SEQ ID NO 190 (peptide)
peptide: Ac-IVLSLD[dV]PIKLK([γGlu-C18 diacid])KILLEQEKQK[Aib]QREQAETN[Aib]QILAQV-NH2
SMILES: CC[C@H](C)[C@H](NC(C)=O)C(=O)N[C@H](C(=O)N[C@@H](CC(C)C)C(=O)N[C@@H](CO)C(=O)N[C@@H](CC(C)C)C(=O)N[C@@H](CC(=O)O)C(=O)N[C@@H](C(=O)N1CCC[C@H]1C(=O)N[C@H](C(=O)N[C@@H](CCCCN)C(=O)N[C@@H](CC(C)C)C(=O)N[C@@H](CCCCNC(=O)CC[C@H](NC(=O)CCCCCCCCCCCCCCCCC(=O)O)C(=O)O)C(=O)N[C@@H](CCCCN)C(=O)N[C@H](C(=O)N[C@@H](CC(C)C)C(=O)N[C@@H](CC(C)C)C(=O)N[C@@H](CCC(=O)O)C(=O)N[C@@H](CCC(N)=O)C(=O)N[C@@H](CCC(=O)O)C(=O)N[C@@H](CCCCN)C(=O)N[C@@H](CCC(N)=O)C(=O)N[C@@H](CCCCN)C(=O)NC(C)(C)C(=O)N[C@@H](CCC(N)=O)C(=O)N[C@@H](CCCNC(=N)N)C(=O)N[C@@H](CCC(=O)O)C(=O)N[C@@H](CCC(N)=O)C(=O)N[C@@H](C)C(=O)N[C@@H](CCC(=O)O)C(=O)N[C@H](C(=O)N[C@@H](CC(N)=O)C(=O)NC(C)(C)C(=O)N[C@@H](CCC(N)=O)C(=O)N[C@H](C(=O)N[C@@H](CC(C)C)C(=O)N[C@@H](C)C(=O)N[C@@H](CCC(N)=O)C(=O)N[C@H](C(N)=O)C(C)C)[C@@H](C)CC)[C@@H](C)O)[C@@H](C)CC)[C@@H](C)CC)C(C)C)C(C)C
B6: SEQ ID NO 193 (peptide)
peptide: Pentanoyl-VLSLD[dV]PIKLK([γGlu-C18 diacid])KILLEQEKQKKQREQAETN[Aib]QILAQV-NH2
SMILES: CCCCC(=O)N[C@H](C(=O)N[C@@H](CC(C)C)C(=O)N[C@@H](CO)C(=O)N[C@@H](CC(C)C)C(=O)N[C@@H](CC(=O)O)C(=O)N[C@@H](C(=O)N1CCC[C@H]1C(=O)N[C@H](C(=O)N[C@@H](CCCCN)C(=O)N[C@@H](CC(C)C)C(=O)N[C@@H](CCCCNC(=O)CC[C@H](NC(=O)CCCCCCCCCCCCCCCCC(=O)O)C(=O)O)C(=O)N[C@@H](CCCCN)C(=O)N[C@H](C(=O)N[C@@H](CC(C)C)C(=O)N[C@@H](CC(C)C)C(=O)N[C@@H](CCC(=O)O)C(=O)N[C@@H](CCC(N)=O)C(=O)N[C@@H](CCC(=O)O)C(=O)N[C@@H](CCCCN)C(=O)N[C@@H](CCC(N)=O)C(=O)N[C@@H](CCCCN)C(=O)N[C@@H](CCCCN)C(=O)N[C@@H](CCC(N)=O)C(=O)N[C@@H](CCCNC(=N)N)C(=O)N[C@@H](CCC(=O)O)C(=O)N[C@@H](CCC(N)=O)C(=O)N[C@@H](C)C(=O)N[C@@H](CCC(=O)O)C(=O)N[C@H](C(=O)N[C@@H](CC(N)=O)C(=O)NC(C)(C)C(=O)N[C@@H](CCC(N)=O)C(=O)N[C@H](C(=O)N[C@@H](CC(C)C)C(=O)N[C@@H](C)C(=O)N[C@@H](CCC(N)=O)C(=O)N[C@H](C(N)=O)C(C)C)[C@@H](C)CC)[C@@H](C)O)[C@@H](C)CC)[C@@H](C)CC)C(C)C)C(C)C

Legend:
[1] = target: T1, CRF1R receptor; test: cell-based or functional assay
[2] = target: human corticotropin-releasing factor 2a (CRF2a receptor) (human), Q13324; test: cell-based or functional assay
human corticotropin-releasing factor 2a (CRF2a receptor) (human), Q13324, sequence (Q13324 20-411): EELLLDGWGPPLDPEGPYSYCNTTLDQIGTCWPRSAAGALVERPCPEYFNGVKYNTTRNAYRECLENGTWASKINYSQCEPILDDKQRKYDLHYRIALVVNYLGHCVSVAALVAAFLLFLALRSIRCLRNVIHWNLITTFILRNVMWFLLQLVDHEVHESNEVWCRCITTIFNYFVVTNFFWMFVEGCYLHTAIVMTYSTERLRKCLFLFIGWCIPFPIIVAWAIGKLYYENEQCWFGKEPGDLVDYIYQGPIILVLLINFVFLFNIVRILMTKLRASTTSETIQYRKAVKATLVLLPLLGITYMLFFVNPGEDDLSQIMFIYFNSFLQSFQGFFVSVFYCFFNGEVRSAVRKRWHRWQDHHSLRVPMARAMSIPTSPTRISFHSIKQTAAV

| Binder | EC50 [1] [nM] | Emax (% I) [1] [%] | EC50 [nM] (cAMP) [2] |
| --- | --- | --- | --- |
| B1 | 92.9 | 54 | 0.18 |
| B2 | – | 32 | 0.28 |
| B3 | – | 9 | 0.29 |
| B4 | – | 19 | 0.11 |
| B5 | – | 9 | 0.3 |
| B6 | – | 20 | 0.17 |
